The test system of the series is O=c1ccn([C@@H]2O[C@H](COP(=O)(O)OP(=O)(O)OP(=O)(O)O)[C@@H](O)[C@H]2O)c(=O)[nH]1. Kind of series: purified protein. The settings on record: 20 mM Tris-HCl pH 8.0, 5 mM DTT, 10 mM MgCl2, 28°C, 16 nM enzyme, no RNA.

What is called Km is the concentration of substrate that gives half-maximal velocity. The kcat is the maximal rate divided by the concentration of active sites. For the substance ALSV NS3-Hel (Alongshan virus), the Michaelis constant (Km) is on record as 185 ± 19 µM and the kcat came out at 0.85 ± 0.02 s⁻¹.
